This note sets out measurements from the supplement of paper PMC11908140.

The labels stand for the following.
B1: library; numbered along this chain (parent)
chain: MRKPRAAVGSGHRKQAASQEGRQKHAKNNSQAKPSACDGLARQPEEVVLQASVSSYHLFRDVAEVTAFRGSLLSWYDQEKRDLPWRRRAEDEMDLDRRAYAVWVSEVMLQQTQVATVINYYTGWMQKWPTLQDLASASLEEVNQLWAGLGYYSRGRRLQEGARKVVEELGGHMPRTAETLQQLLPGVGRYTAGAIASIAFGQATGVVDGNVARVLCRVRAIGADPSSTLVSQQLWGLAQQLVDPARPGDFNQAAMELGATVCTPQRPLCSQCPVESLCRARQRVEQEQLLASGSLSGSPDVEECAPNTGQCHLCLPPSEPWDQTLGVVNFPRKASRKPPREESSATCVLEQPGALGAQILLVQRPNSGLLAGLWEFPSVTWEPSEQLQRKALLQELQRWAGPLPATHLRHLGEVVHTFSHIKLTYQVYGLALEGQTPVTTVPPGARWLTQEEFHTAAVSTAMKKVFRVYQGQQPGTCMGSKRSQVSSPCSRKKPRMGQQVLDNFFRSHISTDAHSLNSAAQ
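Note: cells sorted at 72 h after reporter transfection.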

Variants of B1 are the subject of the data set. The data set can be described thus: 8OG:A repair function score (normalized; synonymous = 0, nonsense = -1) (normalized log-likelihood score); higher = more repair activity (WT-like). The settings on record: with 8OG:A DNA repair reporter (GFP) in HEK-293 MUTYH KO cells. The procedure, abridged: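 GFP+ (repair) and GFP− bins of viable mCherry+ cells were collected at 72 h from MUTYH knockout HEK-293 cells bearing lentiviral MUTYH cDNA NNN codon-scan libraries in 10 pg/ml doxycycline, co-transfected with an 8OG:A GFP repair reporter and mCherry. Tile amplicons were sequenced, and per-tile Rosace fitness scores were normalized to a repair function score anchored on synonymous and nonsense distributions. Synonymous medians were set to 0 and nonsense to -1, with variants under 300 counts per million at the start removed.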
Consider MRKPRAAVGSGHRKQAASQEGRQKHAKNNSQAKPSACDGLARQPEEVVLQASVSSYHLFRDVAEVTAFRGSLLSWYDQEKRDLPWRRRAEDEMDLDRRAYAVWVSEVMLQQTQVATVINYYTGWMQKWPTLQDLASASLEEVNQLWAGLGYYSRGRRLQEGARKVVEELGGHMPRTAETLQQLLPGVGRYTAGAIASIAFGQATGVVDGNVARVLCRVRAIGADPSSTLVSQQLWGLAQQLVDPARPGDFNQAAMELGATVCTPQRPLCVQCPVESLCRARQRVEQEQLLASGSLSGSPDVEECAPNTGQCHLCLPPSEPWDQTLGVVNFPRKASRKPPREESSATCVLEQPGALGAQILLVQRPNSGLLAGLWEFPSVTWEPSEQLQRKALLQELQRWAGPLPATHLRHLGEVVHTFSHIKLTYQVYGLALEGQTPVTTVPPGARWLTQEEFHTAAVSTAMKKVFRVYQGQQPGTCMGSKRSQVSSPCSRKKPRMGQQVLDNFFRSHISTDAHSLNSAAQ [S270V], for which the “8OG:A repair function score” value is -0.0277. As for MRKPRAAVGSGHRKQAASQEGRQKHAKNNSQAKPSACDGLARQPEEVVLQASVSSYHLFRDVAEVTAFRGSLLSWYDQEKRDLPWRRRAEDEMDLDRRAYAVWVSEVMLQQTQVATVINYYTGWMQKWPTLQDLASASLEEVNQLWAGLGYYSRGRRLQEGARKVVEELGGHMPRTAETLQQLLPGVGRYTAGAIASIAFGQATGVVDGNVARVLCRVRAIGADPSSTLVSQQLWGLAQQLVDPARPGDFNQAAMELGATVCTPQRPLCSQCPVESLCRARQRVEQEQLLASGSLSGSPDVEECAPNTGQCHLCLPPSEPWDQTLGVVNFPRKASRKPPREESSATCVLEQPGALGAQILLVQRPNSGLLAGLWEFPSVTWEPSEQLQRKALLQELQRWAGPLPATHLRHLGEVVHTFSHIKLTYQNYGLALEGQTPVTTVPPGARWLTQEEFHTAAVSTAMKKVFRVYQGQQPGTCMGSKRSQVSSPCSRKKPRMGQQVLDNFFRSHISTDAHSLNSAAQ [V427N], the “8OG:A repair function score” value was -1.15. For the variant MFKPRAAVGSGHRKQAASQEGRQKHAKNNSQAKPSACDGLARQPEEVVLQASVSSYHLFRDVAEVTAFRGSLLSWYDQEKRDLPWRRRAEDEMDLDRRAYAVWVSEVMLQQTQVATVINYYTGWMQKWPTLQDLASASLEEVNQLWAGLGYYSRGRRLQEGARKVVEELGGHMPRTAETLQQLLPGVGRYTAGAIASIAFGQATGVVDGNVARVLCRVRAIGADPSSTLVSQQLWGLAQQLVDPARPGDFNQAAMELGATVCTPQRPLCSQCPVESLCRARQRVEQEQLLASGSLSGSPDVEECAPNTGQCHLCLPPSEPWDQTLGVVNFPRKASRKPPREESSATCVLEQPGALGAQILLVQRPNSGLLAGLWEFPSVTWEPSEQLQRKALLQELQRWAGPLPATHLRHLGEVVHTFSHIKLTYQVYGLALEGQTPVTTVPPGARWLTQEEFHTAAVSTAMKKVFRVYQGQQPGTCMGSKRSQVSSPCSRKKPRMGQQVLDNFFRSHISTDAHSLNSAAQ [R2F], the “8OG:A repair function score” value came to 0.0866. The figure for MRKPRAAVGSGHRKQAASQEGRQKHAKNNSQAKPSACDGLARQPEEVVLQASVSSYHLFRDVAEVTAFRGSLLSWYDQEKRDLPWRRRAEDEMDLDRRAYAVWVSEVMLQQTQVATVINYYTGWMQKWPTLQDLASASLEEVNQLWAGLGYYSRGRRLQEGARKVVEELGGHMPRTAETLQQLLPGVGRYTAGAIASIAFGQATGVVDGNVARVLCRVRAIGADPSSTLVSQQLWGLAQQLVDPARPGDFNQAAMELGATVCTPQRPLCSQCPVESLCRARQRVEQEQLLASGSLSGSPDVEECAPNTGQCHLRLPPSEPWDQTLGVVNFPRKASRKPPREESSATCVLEQPGALGAQILLVQRPNSGLLAGLWEFPSVTWEPSEQLQRKALLQELQRWAGPLPATHLRHLGEVVHTFSHIKLTYQVYGLALEGQTPVTTVPPGARWLTQEEFHTAAVSTAMKKVFRVYQGQQPGTCMGSKRSQVSSPCSRKKPRMGQQVLDNFFRSHISTDAHSLNSAAQ [C314R] is -0.482. In the case of MRKPRAAVGSGHRKQAASQEGRQKHAKNNSQAKPSACDGLARQPEEVVLQASVSSYHLFRDVAEVTAFRGSLLSWYDQEKRDLPWRRRAEDEMDLDRRAYAVWVSEVMLQQTQVATVINYYTGWMQKWPTLQDLASASLEEVNQLWAGLGYYSRGRRLQEGARKVVEELGGHMPRTAETLQQLLPGVGRYTAGAIASIAFGQATGVVDGNVARVLCRVRAIGADPSSTLVSQQLWGLAQQLVDPARPGDFNQAAMELGATVCTPQRPLCSQCPVESLCRARQRVEQERLLASGSLSGSPDVEECAPNTGQCHLCLPPSEPWDQTLGVVNFPRKASRKPPREESSATCVLEQPGALGAQILLVQRPNSGLLAGLWEFPSVTWEPSEQLQRKALLQELQRWAGPLPATHLRHLGEVVHTFSHIKLTYQVYGLALEGQTPVTTVPPGARWLTQEEFHTAAVSTAMKKVFRVYQGQQPGTCMGSKRSQVSSPCSRKKPRMGQQVLDNFFRSHISTDAHSLNSAAQ [Q288R], the “8OG:A repair function score” value is -0.00978. Take MRKPRAAVGSGHRKQAASQEGRQKHAKNNSQAKPSACDGLARQPEEVVLQASVSSYHLFRDVAEVTAFRGSLLSWYDQEKRDLPWRRRAEDEMDLDRRAYAVWVSEVMLQQTQVATVINYYTGWMQKWPTLQDLASASLEEVNQLWAGLGYYSRGRRLQEGARKVVEELGGHMPRTAETLQQLLPGVGRYTAGAIASIAFGQATGVVDGNVARVLCRVRAIGADPSSTLVSQQLWGLAQQLVDPARPGDFNQAAMELGATVCTPQRPLCSQCPVESLCRARQRVEQEQLLASGSLSGSPDVEECAPNTGQHHLCLPPSEPWDQTLGVVNFPRKASRKPPREESSATCVLEQPGALGAQILLVQRPNSGLLAGLWEFPSVTWEPSEQLQRKALLQELQRWAGPLPATHLRHLGEVVHTFSHIKLTYQVYGLALEGQTPVTTVPPGARWLTQEEFHTAAVSTAMKKVFRVYQGQQPGTCMGSKRSQVSSPCSRKKPRMGQQVLDNFFRSHISTDAHSLNSAAQ [C311H]: the “8OG:A repair function score” value is -0.471.
